Among the data in US20210380678A1 (published 2021) are Kd values, retold here.

As a reminder, the Kd is the concentration at which binding is half-saturated.

Assay [1] deals with T1, Fc portion of human IgG1-fused LGR5-ECD (R&D systems) (UniProt O75473 22-557).
T1 chain: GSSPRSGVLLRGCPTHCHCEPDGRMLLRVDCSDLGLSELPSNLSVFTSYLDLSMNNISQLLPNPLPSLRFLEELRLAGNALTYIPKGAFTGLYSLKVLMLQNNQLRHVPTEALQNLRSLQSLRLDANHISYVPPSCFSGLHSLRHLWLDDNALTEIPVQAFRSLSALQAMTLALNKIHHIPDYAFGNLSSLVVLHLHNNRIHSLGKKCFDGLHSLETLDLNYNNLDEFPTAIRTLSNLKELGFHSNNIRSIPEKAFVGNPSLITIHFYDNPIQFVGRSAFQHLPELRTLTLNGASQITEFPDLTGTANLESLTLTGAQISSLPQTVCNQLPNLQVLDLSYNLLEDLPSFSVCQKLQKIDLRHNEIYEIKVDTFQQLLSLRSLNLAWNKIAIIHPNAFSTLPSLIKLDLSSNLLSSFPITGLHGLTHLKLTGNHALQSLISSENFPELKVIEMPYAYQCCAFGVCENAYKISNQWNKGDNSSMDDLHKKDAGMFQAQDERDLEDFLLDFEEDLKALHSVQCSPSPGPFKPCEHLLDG
The assay can be described thus: BLI steady-state.

The target of assay [2] is T2, human ZNRF3 extracellular domain (hZNRF3 ECD) (UniProt Q9ULT6 56-219, biotinylated (His-Avi tag)).
T2 chain: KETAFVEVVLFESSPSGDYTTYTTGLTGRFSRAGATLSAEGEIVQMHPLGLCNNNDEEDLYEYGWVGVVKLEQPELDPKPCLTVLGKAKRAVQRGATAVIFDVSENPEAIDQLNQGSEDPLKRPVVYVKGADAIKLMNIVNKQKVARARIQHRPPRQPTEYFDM
The assay can be described thus: BLI; steady-state fit. (In BLI a coated tip is dipped into the sample, and binding shifts an interference pattern.)

For assay [3], the target named is T3, human RNF43 extracellular domain (hRNF43 ECD) (UniProt Q68DV7 44-197, biotinylated (His-Avi tag)).
T3 chain: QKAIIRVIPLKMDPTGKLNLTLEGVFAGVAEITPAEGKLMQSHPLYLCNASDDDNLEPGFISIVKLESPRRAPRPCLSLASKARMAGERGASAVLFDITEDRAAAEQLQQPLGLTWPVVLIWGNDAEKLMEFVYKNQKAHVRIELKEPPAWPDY
The assay can be described thus: BLI; steady-state fit.

Assay [4] has as its target T4, human ASGR2 extracellular domain (hASGR2 ECD) (UniProt P07307 86-311, biotinylated (His/Avi tag)).
T4 chain: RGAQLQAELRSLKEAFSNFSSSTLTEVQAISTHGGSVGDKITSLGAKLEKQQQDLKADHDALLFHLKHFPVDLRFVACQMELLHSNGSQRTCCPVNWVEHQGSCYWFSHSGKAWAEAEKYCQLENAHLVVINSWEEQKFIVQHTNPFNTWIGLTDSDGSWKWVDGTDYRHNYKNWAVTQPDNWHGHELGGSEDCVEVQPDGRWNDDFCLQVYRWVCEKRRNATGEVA
Put plainly: BLI.

Assay [5] deals with T5, human ASGR1 extracellular domain (hASGR1 ECD) (UniProt P07306 62-291, biotinylated (His-Avi tag)).
T5 chain: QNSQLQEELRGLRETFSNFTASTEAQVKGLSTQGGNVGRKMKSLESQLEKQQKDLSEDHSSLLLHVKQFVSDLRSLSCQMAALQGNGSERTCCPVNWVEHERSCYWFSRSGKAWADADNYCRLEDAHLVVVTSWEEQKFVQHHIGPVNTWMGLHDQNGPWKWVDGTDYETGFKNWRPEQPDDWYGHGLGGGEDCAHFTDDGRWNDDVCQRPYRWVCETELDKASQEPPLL
Put plainly: BLI.

The target of assay [6] is T5, human ASGR1 extracellular domain …. Put plainly: BLI.
The target of assay [7] is T6, mouse ASGR1 extracellular domain (mASGR1 ECD) (biotinylated (His-Avi tag)).
T6 chain: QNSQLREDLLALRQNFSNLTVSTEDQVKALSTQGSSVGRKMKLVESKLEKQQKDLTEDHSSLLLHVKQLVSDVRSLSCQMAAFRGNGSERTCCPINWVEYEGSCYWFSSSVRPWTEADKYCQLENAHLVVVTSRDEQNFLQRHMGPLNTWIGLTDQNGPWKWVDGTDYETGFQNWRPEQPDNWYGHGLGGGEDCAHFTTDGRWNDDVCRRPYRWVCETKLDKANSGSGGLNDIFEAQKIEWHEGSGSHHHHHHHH
Put plainly: BLI.

The target in assay [8] is T2, human ZNRF3 extracellular domain …. The assay can be described thus: BLI steady-state.
Assay [9] concerns the target T3, human RNF43 extracellular domain …. Put plainly: BLI steady-state.
The target in assay [10] is T5, human ASGR1 extracellular domain …. The assay can be described thus: BLI; steady-state fit.

Where a chain is given by its changes, count along the chain named. In names and notes the source's numbering stands.

B1: αTFR1-RSPO2-WT (anti-TFR1, RSPO2 wild type) (other)
chain: QVQLQQSGPELVRPGVSVKISCKGSGYTFTDYAMHWVKQSHAKSLEWIGGISTYFGRTNYNQKFKGRATMTVDKSSSTAYMELARLTSEDSALYYCARGLSGNYVMDYWGQGTSVTVSSGGGGSGGGGSGGGGSDIVLFQSPASLAVSLGQRATISCRASESVDDYGNSFMHWYQQKPGQPPKLLIYRASNLESGIPARFSGSGSRTDFTLTINPVEADDVATYYCQQSNEAPPTFGGGTKLEIRGSGGSNPICKGCLSCSKDNGCSRCQQKLFFFLRREGMRQYGECLHSCPSGYYGHRAPDMNRCARCRIENCDSCFSKDFCTKCKVGFYLHRGRCFDECPDGFAPLEETMECVEGGDYKDDDDKGSHHHHHHHH
For B1, the equilibrium dissociation constant (Kd) in assay [1] worked out at 5 nM; in [2], 72 nM; in [3] it was 44 nM.

B2: αTFR1-RSPO2-RA (anti-TFR1, RSPO2 (F105R/F109A)) (other)
chain: B1 chain with F319R, F323A
As to B2, the Kd in [2] turned out to be 75 nM; in assay [3], 45 nM.

B3: Abv-3D11 Fab (Fab, V domains shown)
VH: EVQLVESGGGLVQPKGSLKLSCAASGFSFNTYAMNWVRQAPGKGLEWVARIRSKSNNYATYYADSVKDRFTISRDDSESMLYLQMNNLKTEDTAMYYCVRPRYDYWYFDVWGTGTTVTVSS
VL: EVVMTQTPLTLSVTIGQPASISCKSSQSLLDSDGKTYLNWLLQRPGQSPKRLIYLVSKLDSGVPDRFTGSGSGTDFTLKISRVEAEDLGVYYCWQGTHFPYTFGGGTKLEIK
Turning to B3, the equilibrium dissociation constant (Kd) in assay [4] is 110 nM.

B4: LP1-8M24 Fab (Fab, V domains shown)
VH: QVQLQQSGAELARPGASVKLSCKASGYTFTNYGINWVKQRTGQGLEWIGEIFPRSDNTFYNEKFKGKATLTADKSSTTAYMELRSLTSEDSAVYFCARKGRDYGTSHYFDYWGQGTTLTVSS
VL: DIQMTQSPASLSVSVGETVTITCRISENIYSNLAWYQQKQGKSPHLLVYAAINLADGVPSRFSGSGSGTQFSLKINSLQSEDFGSYYCQHFWGTPFTFGSGTKLEIK
For B4, binding in [5] was put at a Kd of 0.17 nM.

B5: anti-ASGR1 Fab (Fab, V domains shown)
VH: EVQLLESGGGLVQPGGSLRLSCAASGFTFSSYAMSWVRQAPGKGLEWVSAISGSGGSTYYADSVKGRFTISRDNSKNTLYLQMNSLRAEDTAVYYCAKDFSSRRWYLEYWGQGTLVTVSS
VL: DIELTQDPAVSVALGQTVRITCQGDSLRSYYASWYQQKPGQAPVLVIYGKNNRPSGIPDRFSGSSSGNTASLTITGAQAEDEADYYCNSLERIGYLSYVFGGGTKLTVLG
Consider B5, for which the Kd turned out to be 349 nM in assay [6] and 213 nM in assay [7].

B6: αGFP-RSPO2-RA (anti-GFP, RSPO2 (F105R/F109A)) (other)
chain: QVQLVESGGGLVQPGGSLRLSCAASGFTFSRYGMHWVRQAPGKGLEWVSGISSIGSNTYYADSVKGRFTISRDNSKNTLYLQMNSLRAEDTAVYYCARWYKTYIDVWGQGTLVTVSSGGGGSGGGGSGGGGSDIELTQPPSVSVAPGQTARISCSGDNLGKKYVYWYQQKPGQAPVLVIYGDDERPSGIPERFSGSNSGNTATLTISGTQAEDEADYYCASYDSSHILIVFGGGTKLTVLGSGGSNPICKGCLSCSKDNGCSRCQQKLFFFLRREGMRQYGECLHSCPSGYYGHRAPDMNRCARCRIENCDSCRSKDACTKCKVGFYLHRGRCFDECPDGFAPLEETMECVEGGDYKDDDDKGSHHHHHHHH
Take B6: the Kd is 170 nM in assay [8] and 31 nM in assay [9].

B7: αGFP-RSPO2-WT (anti-GFP, RSPO2 wild type) (other)
chain: B6 chain with R314F, A318F
Regarding B7, the Kd was 160 nM in [8] and 42 nM in assay [9].

B8: 024S-E03 Fab (Fab, V domains shown)
VH: QVQLQQSGPGLVKPSQTLSLTCAISGASVSSNSAAWNWIRQSPSRGLEWLGRTYYRSKWYNDYAVSVKSRITINPDTSKNQFSLQLNSVTPGDTAVYYCARWNHEEHYFDYWGQGTLVTVSS
VL: DVVMTQSPATLSFSPGERATLSCRASQSVGSYLAWYQQRPGQAPRPLIYDATNRATGIPTRFSGSGSGTDFTLTISSLEPEDFATYYCQHRRTFGRGTKLEIK
B8: binding in assay [10] was characterised by a dissociation constant (Kd) of 180 nM.

B9: 024S-D03 Fab (Fab, V domains shown)
VH: B8 VH with A27D, I39M, I71M, K79R, P91L, G92E
VL: B8 VL with D1E, V2I, M4L
Molecule B9 gave a Kd in assay [10] of 130 nM.

B10: 024S-A04 Fab (Fab, V domains shown)
VH: QVQLQQSGPGLVKPSQTLSLTCAISGDSVSSNSVAWNWMRQSPSRGLEWLGRTYYRSKWYYDYAVSVKSRITINPDTSKNQFSLQLNSVTPEDTAVYYCASWTRGAFDIWGQGTMVTVSS
VL: B8 VL with V2I, V3Q, M4L
Regarding B10, the affinity in assay [10], expressed as Kd, was 100 nM.

B11: Abv-10B8 Fab (Fab, V domains shown)
VH: DVKLVESGEGLVKPGGSLKLSCAASGFTFSSYAMSWVRQTPEKRLEWVAYISSGGDYIYYVDTVKGRFTISRDNARNTLYLQMSSLKSEDTAVYYCTREGTGGMDYWGQGTSVTVSS
VL: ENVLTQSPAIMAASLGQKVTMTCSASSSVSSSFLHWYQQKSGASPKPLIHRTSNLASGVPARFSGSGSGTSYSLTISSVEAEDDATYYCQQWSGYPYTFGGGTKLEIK
Turning to B11, the Kd in assay [4] stood at 230 nM.

B12: LP1-2I13 Fab (Fab, V domains shown)
VH: EVQLVESGGGLVKPGGSRKLSCAASGFTFSDYGMHWVRQAPEKGLEWVAYISSGSSTIYYADTVKGRFTISRDNAKNTLFLQMTSLRSEDTAMYYCSRKGGFGDYEKSYAMDYWGQGTSVTVSS
VL: DIQMTQSPASLSASVGETVTITCRASENIYSYLVWYQQKQGKSPQLLVYNAKTLAEGVPSRFSGSGSGTQFSLKINSLQPEDFGSYYCQHHYGTWTFGGGIKLEIK
Turning to B12, the Kd in assay [5] was determined as 7.3 nM.
